The target of assay [1] is T1, EGFR-ECD (UniProt P00533 25-645). Nature of the assay: BLI. (BLI is a label-free optical method that tracks binding on a fibre tip over time.)
The target of assay [2] is T1, EGFR-ECD. The experiment in a line: BLI. This is another data set of the same source.

Like-named read-outs stand apart in the source and are kept apart here.

B1: dFEB4-1 (antibody, V domains shown)
VH: AVTLDESGGGLQTPGGALSLVCKASGFTFSSHGMLWVRQAPGKGLEFVAGISTDGSSTSYGAPVKGRATISRDNGQSTVRLQLNNLRAEDTGTYYCAKDAYRCRNCAEDIDAWGHGTEVIVSS
VL: ALTQPSSVSANPGETVKITCSGGGYDGSYYYGWYQQKSPGSAPVTVIYDNTNRPSNIPSRFSGSLSGSTNTLTITGVQAEDEAVYFCGGYDRSGGIFGGGTTLTVL
As to B1, the Kd with EGFR-ECD [1] was determined as 3.7 nM. That is a single-digit nanomolar value.

B2: FEB4 (antibody, V domains shown)
VH: B1 VH
VL: ALTQPSSVSANPGETVKITCSGGYSDDGSYYYYGWFQQKSPGSAPVTVIYDNTNRPSNIPSRFSGSTSGSTSTLTITGVRAEDEAVYYCGSIDTGYAGIFGAGTTLTVL
With B2, the Kd in the assay with EGFR-ECD [2] came to 29.3 nM. This lies in the double-digit nanomolar range.

One may read the Kd as the concentration at which binding is half-saturated. Lower therefore signals higher affinity.

For the origin of these results see paper PMC8141644 (2021).
